Source: patent publication US20210017279A1 (NANJING LEGEND BIOTECH, published 2021)
Where “and” joins values, the source holds several entries; their conditions need not be identical. Equal values may be shown once. Read-outs that look alike come from different tables or passages of the source.

Legend:
[1] = molecular target: LAG-3 on Thaw-and-Use LAG-3 Effector cells; test: cell-based or functional assay
[2] = molecular target: PD-1 in the PD-1 cell based reporter assay; test: cell-based or functional assay
Human PD-1 = Human PD-1 (human, UniProt Q15116 25-167, limits assumed); test: SPR (Biacore T200), as in Example 3; Experiment 2
Human PD-1, sequence (Q15116 25-167 limits assumed): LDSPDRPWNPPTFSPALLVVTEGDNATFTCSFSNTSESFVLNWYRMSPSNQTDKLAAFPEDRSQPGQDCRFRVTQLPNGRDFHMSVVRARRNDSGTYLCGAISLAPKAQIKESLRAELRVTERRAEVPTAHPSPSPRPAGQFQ

[3] = molecular target: T1, PD-1 expressed on CHO cells (UniProt Q15116 25-288, limits assumed); test: flow cytometry on CHO cells expressing PD-1; Experiment 2
T1 construct: whole, on cells; also called CHO-PD-1 cells
T1 sequence (Q15116 25-288 limits assumed): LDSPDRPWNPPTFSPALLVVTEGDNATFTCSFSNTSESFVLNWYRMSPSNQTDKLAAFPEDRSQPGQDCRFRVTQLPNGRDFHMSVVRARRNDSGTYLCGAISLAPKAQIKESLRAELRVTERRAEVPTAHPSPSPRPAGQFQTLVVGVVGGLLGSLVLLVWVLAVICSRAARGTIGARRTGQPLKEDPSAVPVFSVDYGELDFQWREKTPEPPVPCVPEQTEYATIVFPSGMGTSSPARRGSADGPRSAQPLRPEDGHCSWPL

[4] = molecular target: T1, PD-1 expressed on CHO cells; test: flow cytometry competition; blocks PD-L1 binding to CHO-PD-1 cells; Experiment 2
Human LAG-3-His = molecular target: T2, Human LAG-3-His (human, UniProt P18627 29-450); test: SPR (Biacore T200), as in Example 3; Experiment 2
T2 construct: Bought recombinant protein; also called Human LAG-3 protein (Acrobiosystem, 772-6BGF2-D5); not shown: His tag
T2 sequence: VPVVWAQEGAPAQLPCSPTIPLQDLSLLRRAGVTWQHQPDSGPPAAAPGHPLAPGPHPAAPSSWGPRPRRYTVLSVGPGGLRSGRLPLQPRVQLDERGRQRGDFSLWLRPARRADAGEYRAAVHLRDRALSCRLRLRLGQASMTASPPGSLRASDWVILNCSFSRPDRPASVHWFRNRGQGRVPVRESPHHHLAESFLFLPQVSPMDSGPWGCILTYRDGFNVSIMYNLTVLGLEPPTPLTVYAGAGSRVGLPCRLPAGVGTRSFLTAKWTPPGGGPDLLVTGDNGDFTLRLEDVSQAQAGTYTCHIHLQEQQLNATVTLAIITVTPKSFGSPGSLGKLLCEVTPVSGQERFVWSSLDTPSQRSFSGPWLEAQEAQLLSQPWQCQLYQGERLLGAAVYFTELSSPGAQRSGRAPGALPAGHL

[5] = molecular target: T3, human LAG-3 expressed on CHO-K1 cells (human, UniProt P18627 29-525); test: flow cytometry on CHO cells expressing LAG-3; Experiment 2
T3 construct: also called CHO-huLAG-3 cells; LAG-3 expressed on CHO cells
T3 sequence: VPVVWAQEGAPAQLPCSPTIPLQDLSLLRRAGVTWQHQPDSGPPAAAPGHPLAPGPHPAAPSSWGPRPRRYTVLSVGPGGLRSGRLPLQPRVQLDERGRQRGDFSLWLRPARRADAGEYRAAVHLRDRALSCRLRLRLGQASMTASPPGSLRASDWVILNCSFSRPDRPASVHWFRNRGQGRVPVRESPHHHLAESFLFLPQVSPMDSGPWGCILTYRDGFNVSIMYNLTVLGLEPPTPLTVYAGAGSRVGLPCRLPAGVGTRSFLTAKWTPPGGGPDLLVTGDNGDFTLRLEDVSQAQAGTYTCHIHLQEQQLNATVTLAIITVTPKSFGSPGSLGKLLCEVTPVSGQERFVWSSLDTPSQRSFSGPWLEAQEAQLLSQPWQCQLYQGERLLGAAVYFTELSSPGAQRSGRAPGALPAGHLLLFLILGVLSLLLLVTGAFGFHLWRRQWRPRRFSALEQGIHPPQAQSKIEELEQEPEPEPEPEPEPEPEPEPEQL
Description: (§1) To determine cell binding EC₅₀, CHO-K1 cells expressing human or cynomolgus LAG-3 were harvested and incubated with anti-LAG-3 sdAb-Fc fusion proteins at gradient concentrations, followed by fluorophore-labeled secondary antibodies against human Fc. […] The samples were then analyzed with flow cytometry. The binding and blocking curves were shown in FIG. 4 and FIG. 5, respectively.

LAG-3-Fc = molecular target: T4, LAG-3-Fc (human, UniProt P18627 29-450, biotinylated (in the blocking assays)); test: flow cytometry competition; blocks LAG-3-Fc binding to MHC II on A375 cells; Experiment 2
T4 construct: Recombinant LAG-3-Fc (Acrobiosystems / R&D Systems); also called biotinylated LAG-3-Fc protein; not shown: Fc part
T4 sequence: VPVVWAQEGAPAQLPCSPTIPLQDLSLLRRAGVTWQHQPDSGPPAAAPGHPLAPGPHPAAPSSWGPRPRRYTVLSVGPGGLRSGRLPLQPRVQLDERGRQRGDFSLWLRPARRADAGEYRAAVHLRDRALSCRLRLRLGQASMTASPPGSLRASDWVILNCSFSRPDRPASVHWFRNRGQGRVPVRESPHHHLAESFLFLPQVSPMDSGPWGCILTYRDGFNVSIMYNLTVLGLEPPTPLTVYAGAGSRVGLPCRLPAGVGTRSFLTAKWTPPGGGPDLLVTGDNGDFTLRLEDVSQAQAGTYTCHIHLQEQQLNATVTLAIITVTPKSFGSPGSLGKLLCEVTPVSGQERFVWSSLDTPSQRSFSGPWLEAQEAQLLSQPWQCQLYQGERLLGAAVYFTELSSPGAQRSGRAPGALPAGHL

[6] = molecular target: LAG-3 on Thaw-and-Use LAG-3 Effector cells; test: cell-based or functional assay; remark: listed apart in the source
[7] = molecular target: T5, cynomolgus LAG-3 expressed on CHO-K1 cells (cynomolgus); test: flow cytometry on CHO-K1 cells expressing cynomolgus LAG-3
T5 construct: whole, on cells
Description: as §1

Cynomolgus LAG-3-Fc [8] = molecular target: T6, Cynomolgus LAG-3-Fc (cynomolgus); test: SPR (Biacore T200); antibody captured on chip, LAG-3 injected
T6 construct: Bought recombinant protein; also called cynomolgus LAG-3 protein (Acrobiosystem, 2187-71HF1-DZ)
Description: BIACORE™ T200 instrument was utilized to determine the affinity constant (KD) of each anti-LAG-3 antibody (sdAb-Fc fusion protein or mAb format) by SPR. Briefly, anti-LAG-3 antibody was immobilized on the sensor chip through capture antibody (Jackson ImmunoResearch Cat. No.115-005-071) at an appropriate density. […] The data of dissociation rate constant (koff) and association rate constant (kₘ) were obtained using BIACORE™ T200 evaluation software and the affinity constant (KD) were calculated from the ratio of koff to kₘ.

Cynomolgus LAG-3-Fc [9] = molecular target: T6, Cynomolgus LAG-3-Fc; test: SPR (Biacore T200); cynomolgus LAG-3 immobilized, antibody injected
Description: BIACORE™ T200 instrument was utilized to determine affinity constant (KD) of each anti-LAG-3 antibody (sdAb-Fc fusion protein or mAb format) by SPR. Briefly, for measuring the affinity against human LAG-3, anti-LAG-3 antibody was immobilized on the sensor chip through capture antibody (Jackson ImmunoResearch Cat.No.115-005-071) at an appropriate density. […] The data of dissociation rate constant (koff) and association rate constant (k₀n) were obtained using BIACORE™ T200 evaluation software and the affinity constant (KD) were calculated from the ratio of koff to kₒₙ.

B1: BLP-38 (bispecific antibody, human IgG4 S228P, kappa)
heavy: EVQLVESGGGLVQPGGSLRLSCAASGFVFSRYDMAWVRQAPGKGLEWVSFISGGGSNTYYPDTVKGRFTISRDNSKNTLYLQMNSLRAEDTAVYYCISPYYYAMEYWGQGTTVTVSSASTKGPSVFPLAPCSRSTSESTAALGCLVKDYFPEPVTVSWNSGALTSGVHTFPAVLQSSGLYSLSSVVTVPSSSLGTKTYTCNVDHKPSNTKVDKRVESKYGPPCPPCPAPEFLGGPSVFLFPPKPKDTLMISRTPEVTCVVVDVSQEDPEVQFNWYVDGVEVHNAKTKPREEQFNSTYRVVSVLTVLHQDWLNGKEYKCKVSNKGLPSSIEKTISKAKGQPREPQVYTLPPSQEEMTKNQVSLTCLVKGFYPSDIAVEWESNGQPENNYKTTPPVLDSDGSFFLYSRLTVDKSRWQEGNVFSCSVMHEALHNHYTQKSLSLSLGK
light: EPKSSDKTHTSPPSPEVQLVESGGGLVQPGGSLRLSCAASGYTVSSYCMGWFRQAPGKGREGVSAIDSDGSVSYADSVKGRFTISKDNSKNTLYLQMNSLRAEDTAVYFCAADLCWVDQDQGEYNTWGQGTLVTVSSDIQMTQSPSSVSASVGDRVTITCKASQDVDTAVAWYQQKPGKAPKLLIYWASTRHTGVPSRFSGSGSGTDFTLTISSLQPEDFATYYCQQYSTFPWTFGGGTKVEIKRTVAAPSVFIFPPSDEQLKSGTASVVCLLNNFYPREAKVQWKVDNALQSGNSQESVTEQDSKDSTYSLSSTLTLSKADYEKHKVYACEVTHQGLSSPVTKSFNRGEC
notes: also called PD-1 x LAG-3 BABP
LAG-3 blockade reporter assay EC50 [1]: 3.83 nM
PD-1 cell based reporter assay EC50 [2]: 1.25 nM
Kd (Human PD-1): 2.5 nM
EC50 [3]: 8.51 nM
EC50 [4]: 12.4 nM

B2: Pembrolizumab (antibody, human IgG4 S228P, kappa, V domains shown)
VH: QVQLVQSGVEVKKPGASVKVSCKASGYTFTNYYMYWVRQAPGQGLEWMGGINPSNGGTNFNEKFKNRVTLTTDSSTTTAYMELKSLQFDDTAVYYCARRDYRFDMGFDYWGQGTTVTVSS
VL: EIVLTQSPATLSLSPGERATLSCRASKGVSTSGYSYLHWYQQKPGQAPRLLIYLASYLESGVPARFSGSGSGTDFTLTISSLEPEDFAVYYCQHSRDLPLTFGGGTKVEIKR
PD-1 cell based reporter assay EC50 [2]: 1.15 nM

B3: BLP-34 (bispecific antibody, human IgG4 S228P, kappa)
heavy: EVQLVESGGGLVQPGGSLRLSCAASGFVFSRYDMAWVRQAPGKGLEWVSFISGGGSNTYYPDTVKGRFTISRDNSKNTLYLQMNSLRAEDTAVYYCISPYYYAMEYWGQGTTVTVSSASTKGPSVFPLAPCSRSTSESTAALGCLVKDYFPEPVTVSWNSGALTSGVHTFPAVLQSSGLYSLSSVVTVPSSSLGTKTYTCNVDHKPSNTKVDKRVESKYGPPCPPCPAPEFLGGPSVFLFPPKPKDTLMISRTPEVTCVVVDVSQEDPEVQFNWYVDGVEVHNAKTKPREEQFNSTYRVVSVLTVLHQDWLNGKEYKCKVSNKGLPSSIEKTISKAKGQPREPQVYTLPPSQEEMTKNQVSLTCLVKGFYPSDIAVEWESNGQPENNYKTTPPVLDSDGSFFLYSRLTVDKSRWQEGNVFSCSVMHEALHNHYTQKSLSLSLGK
light: EPKSSDKTHTSPPSPEVQLVESGGGLVQPGGSLRLSCAASGYIISSYCMGWFRQAPGKGLEGVAAIDSDGGTSYADSVKGRFTISKDNSKNTLYLQMNSLRAEDTAMYYCAADFCWVDEDRHLYEYNSWGQGTLVTVSSDIQMTQSPSSVSASVGDRVTITCKASQDVDTAVAWYQQKPGKAPKLLIYWASTRHTGVPSRFSGSGSGTDFTLTISSLQPEDFATYYCQQYSTFPWTFGGGTKVEIKRTVAAPSVFIFPPSDEQLKSGTASVVCLLNNFYPREAKVQWKVDNALQSGNSQESVTEQDSKDSTYSLSSTLTLSKADYEKHKVYACEVTHQGLSSPVTKSFNRGEC
notes: also called PD-1 x LAG-3 BABP
LAG-3 blockade reporter assay EC50 [1]: 15.8 nM
PD-1 cell based reporter assay EC50 [2]: 2.77 nM
Kd (Human LAG-3-His): 3.7 nM
Kd (Human PD-1): 3.1 nM
EC50 [3]: 12.5 nM
EC50 [5]: 3.12 nM
EC50 [4]: 13.8 nM
EC50 (LAG-3-Fc): 37.1 nM

B4: BMS-986016 (antibody, human IgG4 S228P, kappa, V domains shown)
VH: QVQLQQWGAGLLKPSETLSLTCAVYGGSFSDYYWNWIRQPPGKGLEWIGEINHRGSTNSNPSLKSRVTLSLDTSKNQFSLKLRSVTAADTAVYYCAFGYSDYEYNWFDPWGQGTLVTVSS
VL: EIVLTQSPATLSLSPGERATLSCRASQSISSYLAWYQQKPGQAPRLLIYDASNRATGIPARFSGSGSGTDFTLTISSLEPEDFAVYYCQQRSNWPLTFGQGTNLEIKR
notes: also called benchmark antibody; positive control anti-LAG-3 monoclonal antibody (Bristol-Myers Squibb)
LAG-3 blockade reporter assay EC50 [6]: 3.82 nM
LAG-3 blockade reporter assay Signal span (% activation) [6]: 76.8 % activation
LAG-3 blockade reporter assay EC50 [1]: 3.29 nM and 3.82 nM
EC50 [7]: 17.6 nM
Kd (Cynomolgus LAG-3-Fc [8]): 1.7 nM
Kd (Cynomolgus LAG-3-Fc [9]): 1000 nM

B5: BLP-19 (bispecific antibody, human IgG4 S228P, kappa)
heavy: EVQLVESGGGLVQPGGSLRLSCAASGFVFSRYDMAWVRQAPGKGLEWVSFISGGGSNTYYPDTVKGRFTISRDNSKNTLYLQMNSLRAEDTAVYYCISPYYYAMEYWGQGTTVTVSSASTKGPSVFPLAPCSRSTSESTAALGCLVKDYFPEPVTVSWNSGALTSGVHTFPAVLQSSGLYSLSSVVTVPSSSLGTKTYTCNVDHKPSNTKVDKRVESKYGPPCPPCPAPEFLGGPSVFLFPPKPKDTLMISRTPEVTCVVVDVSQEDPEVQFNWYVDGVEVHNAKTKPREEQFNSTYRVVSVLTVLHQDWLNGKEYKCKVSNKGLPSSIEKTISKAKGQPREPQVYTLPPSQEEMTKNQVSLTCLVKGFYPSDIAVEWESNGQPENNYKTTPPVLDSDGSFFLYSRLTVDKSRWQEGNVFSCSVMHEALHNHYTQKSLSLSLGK
light: EVQLVESGGGLVQPGGSLRLSCAASGYTYGGYCMGWFRQAPGKGLEGVSTINSDGSTNYADSVKGRFTISRDNSKNTLYLQMNSLRAEDTAVYYCAVDLAPCWVAGPIEAADFGYWGQGTLVTVSSEPKSSDKTHTSPPSPDIQMTQSPSSVSASVGDRVTITCKASQDVDTAVAWYQQKPGKAPKLLIYWASTRHTGVPSRFSGSGSGTDFTLTISSLQPEDFATYYCQQYSTFPWTFGGGTKVEIKRTVAAPSVFIFPPSDEQLKSGTASVVCLLNNFYPREAKVQWKVDNALQSGNSQESVTEQDSKDSTYSLSSTLTLSKADYEKHKVYACEVTHQGLSSPVTKSFNRGEC
notes: also called PD-1 x LAG-3 BABP
LAG-3 blockade reporter assay EC50 [1]: 1.57 nM
PD-1 cell based reporter assay EC50 [2]: 3.65 nM
Kd (Human LAG-3-His): 1.4 nM
Kd (Human PD-1): 4 nM
EC50 [3]: 14.6 nM
EC50 [5]: 13.5 nM
EC50 [4]: 21 nM
EC50 (LAG-3-Fc): 44.6 nM
